Changes are numbered by the printed parent chain. Where two headings read alike, the source gives them in different places. Values belong to the binder of their own block, whether it stands above or below them.
How the values were obtained:
[1] = biological target: T1, XENP23311 (His-tagged NKG2D-Fc) (human, UniProt P26718 78-216); test: Octet; bivalent format
T1 chain: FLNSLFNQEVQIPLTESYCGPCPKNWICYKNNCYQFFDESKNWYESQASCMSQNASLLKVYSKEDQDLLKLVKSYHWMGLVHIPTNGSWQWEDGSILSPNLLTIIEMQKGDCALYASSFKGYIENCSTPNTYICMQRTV

XENP38100 (1D2B4) [2] = test: Octet
XENP38100 (1D2B4) [3] = test: Octet; remark: listed apart in the source
[4] = biological target: T1, XENP23311 (His-tagged NKG2D-Fc); test: Biacore; steady state
[5] = biological target: T1, XENP23311 (His-tagged NKG2D-Fc); test: Biacore; 1:1 Langmuir
CD16 = CD16 (UniProt P08637 17-208)
Sequence of CD16 (P08637 17-208): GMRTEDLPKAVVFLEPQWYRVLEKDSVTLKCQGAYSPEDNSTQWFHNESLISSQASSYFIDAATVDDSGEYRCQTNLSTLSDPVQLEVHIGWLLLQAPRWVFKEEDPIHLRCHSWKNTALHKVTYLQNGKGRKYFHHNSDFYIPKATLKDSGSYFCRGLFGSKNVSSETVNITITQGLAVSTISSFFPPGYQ

NKG2D = biological target: T2, NKG2D (human, UniProt P26718 78-216)
T2 chain: T1 chain

B7H3 = biological target: T3, B7H3 (human, UniProt Q5ZPR3 29-466); test: -; monovalent, 1+1 bispecific format
T3 chain: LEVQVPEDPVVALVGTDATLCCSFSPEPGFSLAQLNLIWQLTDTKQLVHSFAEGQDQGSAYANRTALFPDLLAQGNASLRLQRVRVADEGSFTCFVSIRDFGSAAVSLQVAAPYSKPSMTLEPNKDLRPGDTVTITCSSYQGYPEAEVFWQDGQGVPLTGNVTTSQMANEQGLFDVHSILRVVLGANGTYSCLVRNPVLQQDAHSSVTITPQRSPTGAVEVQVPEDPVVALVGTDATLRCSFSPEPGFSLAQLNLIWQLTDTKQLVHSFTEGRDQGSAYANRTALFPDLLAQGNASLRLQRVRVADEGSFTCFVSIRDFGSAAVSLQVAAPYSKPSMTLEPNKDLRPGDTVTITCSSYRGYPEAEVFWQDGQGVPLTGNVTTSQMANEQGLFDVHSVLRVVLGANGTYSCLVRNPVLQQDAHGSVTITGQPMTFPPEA

- Kd [1]: 0.00049 µM
B1: XENP38098 (LB_1002, Bivalent) (antibody, V domains shown)
VH: EVQLVESGGGLVKPGGSLRLSCAASGFTFSSYSMNWVRQAPGKGLEWVSSISSSSSYIYYADSVKGRFTISRDNAKNSLYLQMNSLRAEDTAVYYCARGAPMGAAAGWFDPWGQGTLVTVSS
VL: DIQMTQSPSSVSASVGDRVTITCRASQGISSWLAWYQQKPGKAPKLLIYAASSLQSGVPSRFSGSGSGTDFTLTISSLQPEDFATYYCQQGVSFPRTFGGGTKVEIKR

- Kd [1]: 0.00042 µM
B2: XENP38097 (LB_1001, Bivalent) (antibody, V domains shown)
VH: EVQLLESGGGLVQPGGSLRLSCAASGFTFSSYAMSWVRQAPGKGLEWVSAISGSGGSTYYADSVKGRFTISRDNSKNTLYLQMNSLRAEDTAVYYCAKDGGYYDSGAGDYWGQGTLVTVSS
VL: B1 VL with S30D, F94Y

- Kd (XENP38100 (1D2B4) [2]): 0.00505 µM
B3: cynomolgus NKG2D (receptor)
chain: T1 chain with D38N, T128I

- Kd (XENP38100 (1D2B4) [3]): 0.0104 µM
B4: human NKG2D (Fc fusion)
chain: T1 chain

- Kd [1]: 0.00052 µM
B5: XENP38093 (1D2B4, Bivalent) (antibody, V domains shown)
VH: EVQLLESGGGLVQPGGSLRLSCAASGFTFSSFGMSWVRQAPGKGLEWVSTISGSGSTTYYADSVKGRFTISRDNSKNTLYLQMNSLRAEDTAVYYCAKGVFSEWHYYFDYWGQGTLVTVSS
VL: not shown

- Kd [4]: 5.41 µM
- Kd [5]: 14.8 µM
B6: XENP42653 (bispecific antibody)
heavy: EVQLLESGGGLVQPGGSLRLSCAVSGFSLSSYGVIWVRQAPGKGLEYVSWVSSGGSTNYASSVKGRFTISRDTSKNTVYLQMNSLRAEDTAVYFCARGATNSGTDIWGPGTLVTVSSASTKGPSVFPLAPSSKSTSGGTAALGCLVKDYFPEPVTVSWNSGALTSGVHTFPAVLQSSGLYSLSSVVTVPSSSLGTQTYICNVNHKPSDTKVDKKVEPKSCDKTHTCPPCPAPELLGGPSVFLFPPKPKDTLMISRTPEVTCVVVDVSHEDPEVKFNWYVDGVEVHNAKTKPREEEYNSTYRVVSVLTVLHQDWLNGKEYKCKVSNKALPAPIEKTISKAKGQPREPQVYTLPPSREEMTKNQVSLTCDVSGFYPSDIAVEWESDGQPENNYKTTPPVLDSDGSFFLYSKLTVDKSRWEQGDVFSCSVMHEALHNHYTQKSLSLSPGK
chain: not shown
light: DIVMTQSPSSLSASVGDRVTITCRASQSINSWLSWYQQKPGKPPKLLIYGASNLASGVPSRFKGSGSGTDFTLTISSLQPEDFATYYCQNNYGIIAAGATFGGGTKVEIKRTVAAPSVFIFPPSDEQLKSGTASVVCLLNNFYPREAKVQWKVDNALQSGNSQESVTEQDSKDSTYSLSSTLTLSKADYEKHKVYACEVTHQGLSSPVTKSFNRGEC

- Kd [4]: 1.49 µM
- Kd [5]: 4.19 µM
B7: XENP42655 (bispecific antibody)
heavy: B6 heavy
chain: not shown
light: B6 light

- Kd [4]: 0.162 µM
- Kd [5]: 0.253 µM
B8: XENP42652 (bispecific antibody)
heavy: B6 heavy
chain: not shown
light: B6 light

- Kd (CD16): 0.12 µM
B9: XENP41024 (antibody)
chain 1: B6 heavy with I332E
chain 2: EVQLLESGGGLVQPGGSLRLSCAVSGFSLSSYGVIWVRQAPGKGLEYVSWVSSGGSTNYASSVKGRFTISRDTSKNTVYLQMNSLRAEDTAVYFCARGATNSGTDIWGPGTLVTVSSGKPGSGKPGSGKPGSGKPGSDIVMTQSPSSLSASVGDRVTITCRASQSINSWLSWYQQKPGKPPKLLIYGASNLASGVPSRFKGSGSGTDFTLTISSLQPEDFATYYCQNNYGIIAAGATFGGGTKVEIKEPKSSDKTHTCPPCPAPELLGGPSVFLFPPKPKDTLMISRTPEVTCVVVDVSHEDPEVKFNWYVDGVEVHNAKTKPREEQYNSTYRVVSVLTVLHQDWLNGKEYKCKVSNKALPAPEEKTISKAKGQPREPQVYTLPPSREQMTKNQVKLTCLVKGFYPSDIAVEWESNGQPENNYKTTPPVLDSDGSFFLYSKLTVDKSRWQQGNVFSCSVMHEALHNHYTQKSLSLSPGK
chain 3: B6 light

- Kd (CD16): 0.102 µM
B10: XENP41023 (antibody)
chain 1: B6 heavy with S239D
chain 2: B9 chain 2 with S271D, E364I
chain 3: B6 light

- Kd [4]: 0.19 µM
- Kd [5]: 0.36 µM
B11: XENP42654 (bispecific antibody)
heavy: B6 heavy
chain: not shown
light: B6 light

- Kd (CD16): 0.104 µM
B12: XENP41036 (antibody)
chain 1: B6 heavy with I332E
chain 2: B9 chain 2 with S271D, E364I
chain 3: B6 light

- Kd (NKG2D): 0.00772 µM
B13: XENP40376 B7H3 Fab x NKG2D scFv (1+1) (antibody)
chain 1: EVQLLESGGGLVQPGGSLRLSCAVSGFSLSSYGVIWVRQAPGKGLEYVSWVSSGGSTNYASSVKGRFTISRDTSKNTVYLQMNSLRAEDTAVYFCARGATNSGTDIWGPGTLVTVSSASTKGPSVFPLAPSSKSTSGGTAALGCLVKDYFPEPVTVSWNSGALTSGVHTFPAVLQSSGLYSLSSVVTVPSSSLGTQTYICNVNHKPSDTKVDKKVEPKSCDKTHTCPPCPAPPVAGPSVFLFPPKPKDTLMISRTPEVTCVVVDVKHEDPEVKFNWYVDGVEVHNAKTKPREEEYNSTYRVVSVLTVLHQDWLNGKEYKCKVSNKALPAPIEKTISKAKGQPREPQVYTLPPSREEMTKNQVSLTCDVSGFYPSDIAVEWESDGQPENNYKTTPPVLDSDGSFFLYSKLTVDKSRWEQGDVFSCSVMHEALHNHYTQKSLSLSPGK
chain 2: not shown
chain 3: B6 light

- Kd (NKG2D): 0.0288 µM
B14: XENP40557 B7H3 Fab x NKG2D scFv (mAb-scFv) (antibody)
chain 1: B13 chain 1
chain 2: not shown
chain 3: B6 light

- Kd (CD16): 0.229 µM
B15: XENP41029 (antibody)
chain 1: B6 heavy with S239D
chain 2: not shown
chain 3: B6 light

- Kd [4]: 0.019 µM
- Kd [5]: 0.0155 µM
B16: XENP40375_H1L1 (antibody)
chain 1: B6 heavy
chain 2: not shown
chain 3: B6 light

- Kd (B7H3): 0.0061 µM
B17: 2E4A3_H1.22_L1 (antibody, V domains shown)
VH: QVQLVQSGAEVKKPGASVKVSCKASGYIFTNNYMHWVRQAPGQGLEWMGIISPSVGRTAYAQKFQGRVTMTRDTSTSTVYMELSSLRSEDTAVYYCARGGGSSPRLDYWGQGTLVTVSS
VL: not shown

- Kd (B7H3): 0.0005 µM
B18: 38E2_H2_L1.1 (antibody, V domains shown)
VH: EVQLLESGGGLVQPGGSLRLSCAVSGFSLSSYGVIWVRQAPGKGLEYVSWVSSGGSTNYASSVKGRFTISRDTSKNTVYLQMNSLRAEDTAVYFCARGATNSGTDIWGPGTLVTVSS
VL: DIVMTQSPSSLSASVGDRVTITCRASQSINSWLSWYQQKPGKPPKLLIYGASNLASGVPSRFKGSGSGTDFTLTISSLQPEDFATYYCQNNYGIIAAGATFGGGTKVEIK
